Measured values as given in patent US20200148768A1.

Target: T1, human BTN1A1-ECD-His6 (human), Q13410
T1 chain: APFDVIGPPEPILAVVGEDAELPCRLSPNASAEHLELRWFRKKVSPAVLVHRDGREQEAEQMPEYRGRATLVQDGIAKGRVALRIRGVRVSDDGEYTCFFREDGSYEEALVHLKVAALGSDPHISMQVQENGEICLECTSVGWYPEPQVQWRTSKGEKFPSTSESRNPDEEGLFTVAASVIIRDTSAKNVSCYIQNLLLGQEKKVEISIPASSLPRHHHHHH
Assay: SPR (Biacore), antibody on mIgG capture chip, BTN1A1-ECD-His 2-64 nM
Details: remark: other sources report otherwise

B1: STC810 (antibody, V domains shown)
VH: EVQLQQSGPELVKPGASVKISCKASGYTFTHYNMDWVKQSHGKSLEWIGYIYPSNGGTGYNQKFKSRATLTVDKSSSTAYMELHSLTSEDSAVYYCARGAYHYGSSYAYWYFDVWGAGTTVTVSS
VL: DIQMTQTTSSLSASLGDRVTISCSASQDISNYLNWYQQKPDETVKLLISYTSSLHSGVPSRFSGSGSGTDYSLTISNLAPEDIATYYCQQSSKLPFTFGSGTELEIKRA
modifications: here or on the partner: N-glycosylated (PNGase F sensitive)
Kd: 12.4 nM
